Measurements reported in patent publication US20170298146A1 (MODIQUEST B V, published 2017).
Non-standard residues stand in square brackets, D forms with d. No end group written: not given here. Cit = NC(=O)NCCC[C@H](N)C(=O)O

Tests used:
[1] = molecular target: T1, CFC-1; experiment: peptide ELISA, 2 ug/well
T1 construct: Positive control for anti-citrulline reactivity; also called cfc1 XG
Description: (§1) Biotin and citrulline-containing peptides derived from histone 2A were immobilized on NEUTRAVIDIN®-coated 96-well ELISA plates (0.3 μg/well). CFC-1 and CFC-0 were coated at the same concentration and served as positive and negative controls respectively for specific anti-citrulline reactivity and as coating controls. Non-coated wells were used to test for aspecific binding of the antibodies. […] Detection of bound anti-citrulline antibodies was performed by incubating the wells with rabbit-anti-human-HRP (1:2000) for one hour at RT followed by incubation with TMB substrate. The resulting OD (y-axis) is a measure for antibody binding.
(§2) Ninety-six-well ELISA plates were coated with NEUTRAVIDIN® (0.1 μg/well) by overnight incubation at 4° C. Wells were washed five times with PBS-TWEEN®-20 (PBS-T) and blocked by a one-hour incubation with PBS-T+1% Bovine serum albumin (BSA) at room temperature (RT). After five more washes with PBS-T, wells were incubated for one hour at RT with histone-derived citrulline and biotin-containing peptides (0.3 μg/well). […] Wells were washed five times with PBS-T and incubated with rabbit-anti-human-HRP (1:2000) for one hour at RT followed by five washes with PBS-T and three wash steps with PBS. Wells were incubated for five minutes with TMB substrate before stopping the reaction with 2 M H₂SO₄. Optical density was measured by 450 nm and is a measure for the affinity of the antibodies used.

[2] = molecular target: T2, Histone 2A citrulline-containing peptide 1 (human, also: biotin label); experiment: peptide ELISA, 2 ug/well
T2 construct: also called AAASGXGKQGGK
T2 peptide: AAASG[Cit]GKQGGK
Description: as §1, §2

[3] = molecular target: T3, Histone 2A citrulline-containing peptide 3 (human, also: biotin label); experiment: peptide ELISA, 2 ug/well
T3 peptide: KSRSS[Cit]AGLQFP
Description: as §1, §2

[4] = molecular target: T4, Histone 2A citrulline-containing peptide 4 (human, also: biotin label); experiment: peptide ELISA, 2 ug/well
T4 peptide: QFPVG[Cit]VHRLLR
Description: as §1, §2

[5] = molecular target: T5, Histone 2A citrulline-containing peptide 5 (human, also: biotin label); experiment: peptide ELISA, 2 ug/well
T5 peptide: VGRVH[Cit]LLRKGN
Description: as §1, §2

[6] = molecular target: T6, Histone 2A citrulline-containing peptide 6 (human, also: biotin label); experiment: peptide ELISA, 2 ug/well
T6 peptide: VHRLL[Cit]KGNYSE
Description: as §1, §2

[7] = molecular target: T7, Histone 2A citrulline-containing peptide 7 (human, also: biotin label); experiment: peptide ELISA, 2 ug/well
T7 peptide: GNYSE[Cit]VGAGAP
Description: as §1, §2

[8] = molecular target: T8, Histone 2A citrulline-containing peptide 8 (human, also: biotin label); experiment: peptide ELISA, 2 ug/well
T8 peptide: AGNAA[Cit]DNKKTR
Description: as §1, §2

[9] = molecular target: T9, Histone 2A citrulline-containing peptide 9 (human, also: biotin label); experiment: peptide ELISA, 2 ug/well
T9 peptide: DNKKT[Cit]IIPRHL
Description: as §1, §2

[10] = molecular target: T10, Histone 2A citrulline-containing peptide 10 (human, also: biotin label); experiment: peptide ELISA, 2 ug/well
T10 peptide: TRIIP[Cit]HLQLAI
Description: as §1, §2

[11] = molecular target: T11, Histone 2A citrulline-containing peptide 11 (human, also: biotin label); experiment: peptide ELISA, 2 ug/well
T11 peptide: LQLAI[Cit]NDEELN
Description: as §1, §2

[12] = molecular target: T12, Histone 2A citrulline-containing peptide 12 (human, also: biotin label); experiment: peptide ELISA, 2 ug/well
T12 peptide: NKLLG[Cit]VTIAQG
Description: as §1, §2

[13] = molecular target: T1, CFC-1; experiment: peptide ELISA, 0.016 ug/well
Description: as §1, §2

[14] = molecular target: T2, Histone 2A citrulline-containing …; experiment: peptide ELISA, 0.016 ug/well
Description: as §1, §2

[15] = molecular target: T13, Histone 2A citrulline-containing peptide 2 (human, also: biotin label); experiment: peptide ELISA, 0.016 ug/well
T13 peptide: AKAKS[Cit]SSRAGL
Description: as §1, §2

[16] = molecular target: T3, Histone 2A citrulline-containing …; experiment: peptide ELISA, 0.016 ug/well
Description: as §1, §2

[17] = molecular target: T4, Histone 2A citrulline-containing …; experiment: peptide ELISA, 0.016 ug/well
Description: as §1, §2

[18] = molecular target: T5, Histone 2A citrulline-containing …; experiment: peptide ELISA, 0.016 ug/well
Description: as §1, §2

[19] = molecular target: T8, Histone 2A citrulline-containing …; experiment: peptide ELISA, 0.016 ug/well
Description: as §1, §2

[20] = molecular target: T9, Histone 2A citrulline-containing …; experiment: peptide ELISA, 0.016 ug/well
Description: as §1, §2

[21] = molecular target: T10, Histone 2A citrulline-containing …; experiment: peptide ELISA, 0.016 ug/well
Description: as §1, §2

[22] = molecular target: T12, Histone 2A citrulline-containing …; experiment: peptide ELISA, 0.016 ug/well
Description: as §1, §2

[23] = molecular target: T1, CFC-1; experiment: peptide ELISA, 0.000128 ug/well
Description: as §1, §2

[24] = molecular target: T2, Histone 2A citrulline-containing …; experiment: peptide ELISA, 0.000128 ug/well
Description: as §1, §2

[25] = molecular target: T13, Histone 2A citrulline-containing …; experiment: peptide ELISA, 0.000128 ug/well
Description: as §1, §2

[26] = molecular target: T3, Histone 2A citrulline-containing …; experiment: peptide ELISA, 0.000128 ug/well
Description: as §1, §2

[27] = molecular target: T5, Histone 2A citrulline-containing …; experiment: peptide ELISA, 0.000128 ug/well
Description: as §1, §2

[28] = molecular target: T6, Histone 2A citrulline-containing …; experiment: peptide ELISA, 0.000128 ug/well
Description: as §1, §2

[29] = molecular target: T8, Histone 2A citrulline-containing …; experiment: peptide ELISA, 0.000128 ug/well
Description: as §1, §2

[30] = molecular target: T9, Histone 2A citrulline-containing …; experiment: peptide ELISA, 0.000128 ug/well
Description: as §1, §2

[31] = molecular target: T10, Histone 2A citrulline-containing …; experiment: peptide ELISA, 0.000128 ug/well
Description: as §1, §2

[32] = molecular target: T11, Histone 2A citrulline-containing …; experiment: peptide ELISA, 0.000128 ug/well
Description: as §1, §2

B1: RhmAb2.102 (antibody, human IgG1, lambda)
heavy: not shown
light: QSVLTQPPSMSAAPGQKVTISCSGSSSNIGNNYVSWYQQVPGTAPKLLIYDDNKRPSGIPGRFSGSKSATSATLGITGLQAGDEADYYCGSWDDNLSVVLFGGGTKLTVLGQPKAAPSVTLFPPSSEELQANKATLVCLISDFYPGAVTVAWKADSSPVKAGVETTTPSKQSNNKYAASSYLSLTPEQWKSHRSYSCQVTHEGSTVEKTVAPTECS
notes: Human IgG1 lambda; also called Rhm2.102
[1]
  OD: 3.21 OD
[2]
  OD: 3.05 OD
[3]
  OD: 0.286 OD
[4]
  OD: 1.3 OD
[5]
  OD: 0.111 OD
[6]
  OD: 0.752 OD
[7]
  OD: 0.059 OD
[8]
  OD: 0.06 OD
[9]
  OD: 0.063 OD
[10]
  OD: 0.07 OD
[11]
  OD: 0.067 OD
[12]
  OD: 0.067 OD
[13]
  OD: 1.46 OD
[14]
  OD: 0.843 OD
[15]
  OD: 0.065 OD
[16]
  OD: 0.07 OD
[17]
  OD: 0.084 OD
[18]
  OD: 0.065 OD
[19]
  OD: 0.063 OD
[20]
  OD: 0.064 OD
[21]
  OD: 0.066 OD
[22]
  OD: 0.057 OD
[23]
  OD: 0.749 OD
[24]
  OD: 0.128 OD
[25]
  OD: 0.075 OD
[26]
  OD: 0.063 OD
[27]
  OD: 0.059 OD
[28]
  OD: 0.054 OD
[29]
  OD: 0.055 OD
[30]
  OD: 0.055 OD
[31]
  OD: 0.057 OD
[32]
  OD: 0.059 OD
